Assay results reported in patent US20230104705A1 (CELLULAR BIOMEDICINE GROUP HK, published 2023).

How the values were obtained:
CD19 = molecular target: T1, CD19 (UniProt P15391 20-556); experiment: flow cytometry on A549-CD19, A549-CD19-CD20 and Raji cells, 20 µg/mL
T1 construct: whole, on cells; also called CD19 on A549-CD19, A549-CD19-CD20, K562-CD19+, K562-CD19+CD20+ and Raji cells
T1 sequence (looked up): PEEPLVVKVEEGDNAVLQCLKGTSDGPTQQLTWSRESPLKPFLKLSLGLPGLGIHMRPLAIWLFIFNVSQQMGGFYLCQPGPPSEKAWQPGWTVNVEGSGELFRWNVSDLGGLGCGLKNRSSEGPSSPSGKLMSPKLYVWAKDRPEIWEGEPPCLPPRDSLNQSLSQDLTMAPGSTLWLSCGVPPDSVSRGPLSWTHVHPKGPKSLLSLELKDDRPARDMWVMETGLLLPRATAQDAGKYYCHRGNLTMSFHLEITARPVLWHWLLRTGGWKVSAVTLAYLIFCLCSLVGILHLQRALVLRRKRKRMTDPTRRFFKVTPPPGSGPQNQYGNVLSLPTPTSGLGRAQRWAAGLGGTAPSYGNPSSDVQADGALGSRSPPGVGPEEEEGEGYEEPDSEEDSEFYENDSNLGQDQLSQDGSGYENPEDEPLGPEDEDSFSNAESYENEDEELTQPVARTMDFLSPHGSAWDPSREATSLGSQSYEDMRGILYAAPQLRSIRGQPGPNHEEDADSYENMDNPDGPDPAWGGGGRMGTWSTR
Source text: (§1) To examine the affinity and specificity of the bi-specific scFv in TN-OF 19 CAR, a chimeric rabbit monoclonal antibody was generated by linking the CD20 scFv, derived from the Ofatumumab mAb and the CD19 scFv, derived from the FMC63 mAb in frame with a rabbit IgG1 Fc region. CD19 and CD20 scFvs were alternatively linked by a G4S linker. The molecular order is OF VL-VH-G4S-FMC63 VH-VL, which is the same as scFVs in TN-OF-19. The chimeric antibody was expressed in 293T cells after transient transfection. Validation of this chimeric antibody for specificity of staining was performed by flow cytometry. Briefly, three stable cell lines (A549-CD19, A549-CD20, A549-CD19-CD20) were used as targets, and CD19-CD20-A549 cells and CD19+CD20+ Raji cells were used as control. All cells were washed and resuspended, blocking by 2% serum for 30 minutes. 5×10⁵ cells were transferred to FACS vials, washed and stained with recombinant antibodies (final concentration 20 μg/mL) for 1 h at 4° C. After washing, the secondary antibody (goat anti-rabbit IgG) was added for 30 minutes in dark at 4° C. Finally, cells were washed and resuspended in 200 μL FACS buffer for FACS analysis.

CD20 = molecular target: T2, CD20 (UniProt P11836 1-297); experiment: flow cytometry on A549-CD20, A549-CD19-CD20 and Raji cells, 20 µg/mL
T2 construct: whole, on cells; also called B1; CD20 on A549-CD20, A549-CD19-CD20, K562-CD20+, K562-CD19+CD20+, Raji and Ramos cells
T2 sequence (looked up): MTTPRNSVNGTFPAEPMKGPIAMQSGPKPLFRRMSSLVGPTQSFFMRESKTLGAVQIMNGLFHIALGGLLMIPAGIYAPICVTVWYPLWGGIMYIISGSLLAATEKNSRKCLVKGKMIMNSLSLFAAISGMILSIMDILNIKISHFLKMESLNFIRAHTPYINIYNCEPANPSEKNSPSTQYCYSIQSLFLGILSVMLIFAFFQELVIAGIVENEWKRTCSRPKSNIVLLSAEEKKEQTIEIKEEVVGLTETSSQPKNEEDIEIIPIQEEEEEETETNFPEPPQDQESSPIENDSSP
Source text: as §1

- binding result (CD19): binds
- binding result (CD20): binds
B1: chimeric rabbit monoclonal antibody (CD20 scFv derived from the Ofatumumab mAb and CD19 scFv derived from the FMC63 mAb, in frame with a rabbit IgG1 Fc region; … (bispecific antibody)
chain: EIVLTQSPATLSLSPGERATLSCRASQSVSSYLAWYQQKPGQAPRLLIYDASNRATGIPARFSGSGSGTDFTLTISSLEPEDFAVYYCQQRSNWPITFGQGTRLEIKGSTSGGGSGGGSGGGGSSEVQLVESGGGLVQPGRSLRLSCAASGFTFNDYAMHWVRQAPGKGLEWVSTISWNSGSIGYADSVKGRFTISRDNAKKSLYLQMNSLRAEDTALYYCAKDIQYGNYYYGMDVWGQGTTVTVSSGGGGSEVKLQESGPGLVAPSQSLSVTCTVSGVSLPDYGVSWIRQPPRKGLEWLGVIWGSETTYYNSALKSRLTIIKDNSKSQVFLKMNSLQTDDTAIYYCAKHYYYGGSYAMDYWGQGTSVTVSSGSTSGSGKPGSGEGSTKGDIQMTQTTSSLSASLGDRVTISCRASQDISKYLNWYQQKPDGTVKLLIYHTSRLHSGVPSRFSGSGSGTDYSLTISNLEQEDIATYFCQQGNTLPYTFGGGTKLEIT
notes: Expressed in 293T cells after transient transfection; also called chimeric antibody; recombinant antibodies; not shown: rabbit IgG1 Fc region
